# T1: FcγRIIa H (FcγRIIa, type H allotype, His at position 131), extracellular domain with C-terminal His tag (human, UniProt P12318 34-217)
# T1 construct: extracellular domain; Soluble receptor expressed in FreeStyle293 cells; analyte in Biacore; also called FcgRIIa H; 2aH; not shown: C-terminal His tag
# T1 sequence (looked up): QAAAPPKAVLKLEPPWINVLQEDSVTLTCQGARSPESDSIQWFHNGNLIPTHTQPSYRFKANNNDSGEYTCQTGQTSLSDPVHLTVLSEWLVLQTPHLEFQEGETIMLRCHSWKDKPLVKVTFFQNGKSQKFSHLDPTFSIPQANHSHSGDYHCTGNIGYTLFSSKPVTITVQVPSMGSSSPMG
# T2: FcγRIIb (human, UniProt P31994 43-217)
# T2 construct: extracellular domain; Soluble extracellular domain with C-terminal His tag, used as analyte in Biacore; also called FcgRIIb; 2b; not shown: His tag attached to the C terminus
# T2 sequence (looked up): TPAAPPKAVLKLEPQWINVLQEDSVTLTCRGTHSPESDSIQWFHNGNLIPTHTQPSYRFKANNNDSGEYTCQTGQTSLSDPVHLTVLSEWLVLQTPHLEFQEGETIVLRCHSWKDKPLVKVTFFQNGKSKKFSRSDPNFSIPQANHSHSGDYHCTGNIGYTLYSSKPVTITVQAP
# T3: FcγRIIb, extracellular domain with C-terminal His tag (human, UniProt P31994 43-217)
# T3 construct: extracellular domain; Soluble receptor expressed in FreeStyle293 cells; analyte in Biacore; also called FcgRIIb; 2b; not shown: C-terminal His tag
# T3 sequence (looked up): T2 sequence (looked up)
# B1: GpH7-A5/GpH7-B3 variant E269_20W/GpL16-k0 (antibody, human IgG1, kappa)
# heavy 1: not shown
# heavy 2: not shown
# light: DIVMTQSPLSLPVTPGEPASISCQASESLVHSNRNTYLHWYLQKPGQSPQLLIYKVSNRFSGVPDRFSGSGSGTDFTLKISRVEAEDVGVYYCSQNTHVPPTFGQGTKVEIERTVAAPSVFIFPPSDEQLKSGTASVVCLLNNFYPREAKVQWKVDNALQSGNSQESVTEQDSKDSTYSLSSTLTLSKADYEKHKVYACEVTHQGLSSPVTKSFNRGEC
# notes: Heterodimerized IgG1; mutation only in the GpH7-B3 chain; also called He Ab
# B2: GpH7-A5/GpH7-B3 variant E269_18N/GpL16-k0 (antibody, human IgG1, kappa)
# heavy 1: not shown
# heavy 2: not shown
# light: B1 light
# notes: as for B1
# B3: GpH7-A5/GpH7-B3 variant Q295_07I/GpL16-k0 (antibody, human IgG1, kappa)
# heavy 1: not shown
# heavy 2: not shown
# light: B1 light
# notes: as for B1
# B4: GpH7-A5/GpH7-B3 variant S298_10E/GpL16-k0 (antibody, human IgG1, kappa)
# heavy 1: not shown
# heavy 2: not shown
# light: B1 light
# notes: as for B1
# B5: GpH7-A5/GpH7-B3 variant S298_03V/GpL16-k0 (antibody, human IgG1, kappa)
# heavy 1: not shown
# heavy 2: not shown
# light: B1 light
# notes: as for B1
# B6: GpH7-A5/GpH7-B3 variant Q295_20W/GpL16-k0 (antibody, human IgG1, kappa)
# heavy 1: not shown
# heavy 2: not shown
# light: B1 light
# notes: as for B1
# B7: GpH7-A5/GpH7-B3 variant Y300_08L/GpL16-k0 (antibody, human IgG1, kappa)
# heavy 1: not shown
# heavy 2: not shown
# light: B1 light
# notes: as for B1
# B8: GpH7-A5/GpH7-B3 variant Y300_11K/GpL16-k0 (antibody, human IgG1, kappa)
# heavy 1: not shown
# heavy 2: not shown
# light: B1 light
# notes: as for B1
# B9: GpH7-A5/GpH7-B3 variant E269_16H/GpL16-k0 (antibody, human IgG1, kappa)
# heavy 1: not shown
# heavy 2: not shown
# light: B1 light
# notes: as for B1
# B10: GpH7-A5/GpH7-B3 variant Y300_06M/GpL16-k0 (antibody, human IgG1, kappa)
# heavy 1: not shown
# heavy 2: not shown
# light: B1 light
# notes: as for B1
# B11: GpH7-A5/GpH7-B3 variant S298_07I/GpL16-k0 (antibody, human IgG1, kappa)
# heavy 1: not shown
# heavy 2: not shown
# light: B1 light
# notes: as for B1
# B12: GpH7-A5/GpH7-B3 variant N325_01G/GpL16-k0 (antibody, human IgG1, kappa)
# heavy 1: not shown
# heavy 2: not shown
# light: B1 light
# notes: Heterodimerized IgG1; mutation in the GpH7-B3 H chain only; also called He Ab
# B13: GpH7-A5/GpH7-B3 variant L234_20W/GpL16-k0 (antibody, human IgG1, kappa)
# heavy 1: not shown
# heavy 2: not shown
# light: B1 light
# notes: as for B12
# B14: GpH7-A5/GpH7-B3 variant G236_10E/GpL16-k0 (antibody, human IgG1, kappa)
# heavy 1: not shown
# heavy 2: not shown
# light: B1 light
# notes: as for B12
# B15: GpH7-A5/GpH7-B3 variant L235_04F/GpL16-k0 (antibody, human IgG1, kappa)
# heavy 1: not shown
# heavy 2: not shown
# light: B1 light
# notes: as for B12
# B16: GpH7-A5/GpH7-B3 variant N325_03V/GpL16-k0 (antibody, human IgG1, kappa)
# heavy 1: not shown
# heavy 2: not shown
# light: B1 light
# notes: as for B12
# B17: GpH7-A5/GpH7-B3 variant N325_04F/GpL16-k0 (antibody, human IgG1, kappa)
# heavy 1: not shown
# heavy 2: not shown
# light: B1 light
# notes: as for B12
# B18: GpH7-A5/GpH7-B3 variant G237_13S/GpL16-k0 (antibody, human IgG1, kappa)
# heavy 1: not shown
# heavy 2: not shown
# light: B1 light
# notes: as for B12
# B19: GpH7-A5/GpH7-B3 variant A327_01G/GpL16-k0 (antibody, human IgG1, kappa)
# heavy 1: not shown
# heavy 2: not shown
# light: B1 light
# notes: as for B12
# Target: T1, FcγRIIa H (FcγRIIa, type H allotype, …)
# Assay: ratio of He/Con_2aH to He/Con_2b (FcγRIIa H over FcγRIIb), SPR
row,Binder,He_2aH/2b (IIaH/IIb)
1,B1,1.43
2,B2,1.44
3,B3,1.21
4,B4,1.22
5,B5,1.32
6,B6,1.25
7,B7,1.47
8,B8,1.3
9,B9,1.53
10,B10,1.24
11,B11,1.23

# Target: T2, FcγRIIb
# Assay: SPR (Biacore), antibody captured on antigen peptide, FcγR as analyte; relative to GpH7-A5/GpH7-B3/GpL16-k0 = 100
row,Binder,He/Con_2b
1,B12,101 % of control
2,B13,114 % of control
3,B14,110 % of control
4,B15,118 % of control
5,B16,111 % of control
6,B17,143 % of control
7,B18,111 % of control
8,B19,116 % of control

# Target: T4, FcγRIa (human, UniProt P12314 16-292)
# T4 construct: extracellular domain; Soluble extracellular domain with C-terminal His tag, used as analyte in Biacore; also called FcgRI; 1a; not shown: His tag attached to the C terminus
# Assay: as above
# T4 sequence (P12314 16-292): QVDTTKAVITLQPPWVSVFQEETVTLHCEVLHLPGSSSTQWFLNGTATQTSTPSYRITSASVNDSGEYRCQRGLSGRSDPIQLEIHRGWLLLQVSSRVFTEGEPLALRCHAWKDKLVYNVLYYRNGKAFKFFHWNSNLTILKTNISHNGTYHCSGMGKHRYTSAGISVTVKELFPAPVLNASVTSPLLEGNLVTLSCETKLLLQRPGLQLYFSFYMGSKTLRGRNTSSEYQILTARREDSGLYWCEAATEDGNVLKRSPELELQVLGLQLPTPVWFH
row,Binder,He/Con_1a
1,B12,97.1 % of control
2,B13,98.6 % of control
3,B14,93.7 % of control
4,B15,97.1 % of control
5,B16,95.6 % of control
6,B17,93.2 % of control
7,B18,92.2 % of control
8,B19,99 % of control

# Target: T1, FcγRIIa H (FcγRIIa, type H allotype, …)
# Assay: SPR (Biacore), captured antibody, FcγR as analyte
row,Binder,He/Con_2aH
1,B1,"60.9 relative, GpH7-A5/GpH7-B3/GpL16-k0 = 100"
2,B2,"64.4 relative, GpH7-A5/GpH7-B3/GpL16-k0 = 100"
3,B3,"102 relative, GpH7-A5/GpH7-B3/GpL16-k0 = 100"
4,B4,"58 relative, GpH7-A5/GpH7-B3/GpL16-k0 = 100"
5,B5,"85.1 relative, GpH7-A5/GpH7-B3/GpL16-k0 = 100"
6,B6,"55.6 relative, GpH7-A5/GpH7-B3/GpL16-k0 = 100"
7,B7,"108 relative, GpH7-A5/GpH7-B3/GpL16-k0 = 100"
8,B8,"66.9 relative, GpH7-A5/GpH7-B3/GpL16-k0 = 100"
9,B9,"59 relative, GpH7-A5/GpH7-B3/GpL16-k0 = 100"
10,B10,"105 relative, GpH7-A5/GpH7-B3/GpL16-k0 = 100"
11,B11,"86.9 relative, GpH7-A5/GpH7-B3/GpL16-k0 = 100"

# Target: T3, FcγRIIb, extracellular domain with …
# Assay: SPR (Biacore), captured antibody, FcγR as analyte
row,Binder,He/Con_2b
1,B1,"42.5 relative, GpH7-A5/GpH7-B3/GpL16-k0 = 100"
2,B2,"44.8 relative, GpH7-A5/GpH7-B3/GpL16-k0 = 100"
3,B3,"84.3 relative, GpH7-A5/GpH7-B3/GpL16-k0 = 100"
4,B4,"47.6 relative, GpH7-A5/GpH7-B3/GpL16-k0 = 100"
5,B5,"64.5 relative, GpH7-A5/GpH7-B3/GpL16-k0 = 100"
6,B6,"44.4 relative, GpH7-A5/GpH7-B3/GpL16-k0 = 100"
7,B7,"73.6 relative, GpH7-A5/GpH7-B3/GpL16-k0 = 100"
8,B8,"51.6 relative, GpH7-A5/GpH7-B3/GpL16-k0 = 100"
9,B9,"38.5 relative, GpH7-A5/GpH7-B3/GpL16-k0 = 100"
10,B10,"84.3 relative, GpH7-A5/GpH7-B3/GpL16-k0 = 100"
11,B11,"70.6 relative, GpH7-A5/GpH7-B3/GpL16-k0 = 100"

# — US20180155451A1 (published 2018)
